Numbering of substitutions follows the chain as printed.
B1: PRT-380 (enzyme)
chain: MVTSVWTKGVTPPTNFTYGEDVLHAPYVANQGWYDITKTFNGKDDLLCGAATAGNMLHWWFDQNKEQIENYLKKHPEKQKINFNGEQMFDVKEAIDTKDSQLDSKLFEYFKEKAFPYLSTKHLGVFPDHVIDMFINGYRLSLTNHGPTPVKRGSKDPRGGIFDAVFTRGDQSKLLTNRHDFKEKTLKEISDLIKQELTEGKALGISHTYANARINHVINLWGADFDAEGNLEAIYVTDSDSNASIGMKKYFVGVNSNGKVAISAKEIEEDNIGAQVLGLFTLSTGQDIWNQTN
B2: PRT-388 (enzyme)
chain: B1 chain with D45T, A212V
B3: PRT-403 (enzyme)
chain: MVTSVWTKGVTPPADFTQGEDVFHAPYVANQGWYDITKTFNGKDDLLCGAATAGNMLHWWFDQNKEYIEAYLKKHPEKQKIMFGDQELLDVRKAINTKGSQKNSELFNYFRDKAFPNLSARRLGVMPDLVLDMFINGYYLNVTKTQTTDVNRTYQEKDKRGGIFDAVFTRGDQSKLLTSRHDFKEKGLKEISDLIKQELTEGKALGLSHTYANVRISHVINLWGADFDSDGNLKAIYVTDSDSNASIGMKKYFVGVNSAGKVAISAKEIKEDNIGAQVLGLFTLSTGQDIWNQTN
B4: PRT-411 (enzyme)
chain: B3 chain with S217N, N244R
B5: PRT-396 (enzyme)
chain: B3 chain with Y211T, S217N
B6: PRT-419 (enzyme)
chain: MTITSVWTKGVTPPTPEDFRYNNEDVLHAPYVANQGWYDITKTFDGKDNLLCGAATAGNMLHWWFDQNKEEIERYLKKHPEKQKIIFNNQELFDVKAAIDTKDSQTNSKLFNYFRDKAFPNLSARQLGVMPDLVLDMFINGYYLNLGKTQSTDVNRPYQDKDKRGGIFDAVFTRGDQTTLLTARHDLKNKGLNEISDLIKQELTEGKALALSHTYANVRINHVINLWGADFDAEGNLIAIYVTDSDANASIGMKKYFVGVNANGKVAISAKKIEGDNIGAQVLGLFTLSTGQDQWQKLS
B7: PRT-427 (enzyme)
chain: B6 chain with D176V, Q294I

Target: pooled human IgG (human IgG1, 2, 3 and 4) (human)
Assay: cell-based or functional assay
Also: test concentration or dose not given here.

| Binder | Enzyme Activity Endpoint Assay: Fab′2 | Enzyme Activity Endpoint Assay: Fc | Enzyme Activity Endpoint Assay: IgG | Enzyme Activity Endpoint Assay: scIgG |
| --- | --- | --- | --- | --- |
| B1 | 66 ng/µL | 258 ng/µL | 219 ng/µL | 702 ng/µL |
| B2 | 481 ng/µL | 338 ng/µL | 34 ng/µL | 222 ng/µL |
| B3 | 569 ng/µL | 332 ng/µL | 166 ng/µL | 40 ng/µL |
| B4 | 519 ng/µL | 341 ng/µL | 90 ng/µL | 155 ng/µL |
| B5 | 0 ng/µL | 92 ng/µL | 1010 ng/µL | 215 ng/µL |
| B6 | 528 ng/µL | 298 ng/µL | 183 ng/µL | 0 ng/µL |
| B7 | 537 ng/µL | 352 ng/µL | 135 ng/µL | 139 ng/µL |
